For the experiment, the target named is biotin-labelled M3C phenomycin (Streptomyces fervens MA 564-Cl). The experiment can be described thus: BLI. (In general: BLI is a label-free optical method that tracks binding on a fibre tip over time.)

Kd data for one substance are collected here from doi:10.1101/847772.

As a reminder, the Kd is the concentration at which binding is half-saturated. High values mean weaker binding, low ones tighter binding. human 80S ribosome (complex) registered a Kd of 0.023 nM.
